Five sequences from the supplement of paper PMC5998384 can be followed below.

For series [1], the system named is HeLa Kyoto. Briefly: melting temperature (median over replicates), in situ; higher = more thermally stable.
The test system of series [2] is HeLa Kyoto. Briefly: solubility in G1/S (NP-40 vs SDS abundance) (log2 ratio); higher = more soluble. Conditions: cell cycle stage: G1/S.
Series [3] has as its system HeLa Kyoto. Briefly: solubility change mitosis vs G1/S (difference of NP-40 vs SDS log2 ratios) (log2 ratio difference); higher = more soluble in mitosis.
Series [4] deals with HeLa Kyoto. Description: thermal stability score vs G1/S (z-score of summed log2 fold changes over temperatures); higher = more thermally stable than in G1/S.
The mark [5] stands for this setting: cell cycle stage: early G1 (4.5 h after nocodazole release).
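Wherever melting temperature (median over replicates), in situ is given: HeLa Kyoto cells synchronized by double thymidine or nocodazole block, proteins quantified by TMT10plex mass spectrometry, three independent biological replicates.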
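Wherever solubility change mitosis vs G1/S (difference of NP-40 vs SDS log2 ratios) is given: synchronized HeLa Kyoto cells (double thymidine block for G1/S, nocodazole release for mitosis), protein amounts in NP-40 versus SDS lysates quantified by mass spectrometry, three biological replicates.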
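Wherever solubility in G1/S (NP-40 vs SDS abundance) is given: HeLa Kyoto cells arrested at G1/S by double thymidine block, proteins quantified by TMT10plex mass spectrometry in mild NP-40 versus SDS extracts, three biological replicates.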
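Wherever thermal stability score vs G1/S (z-score of summed log2 fold changes over temperatures) is given: synchronized HeLa Kyoto cells, proteins quantified by TMT10plex mass spectrometry, three biological replicates, mitosis taken 0.5 h after nocodazole release, G1/S directly after double thymidine block.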

As for “MAASMARRLWPLLTRRGFRPRGGCISNDSPRRSFTTEKRNRNLLYEYAREGYSALPQLDIERFCACPEEAAHALELRKGELRSADLPAIISTWQELRQLQEQIRSLEEEKAAVTEAVRALLANQDSGEVQQDPKYQGLRARGREIRKELVHLYPREAQLEEQFYLQALKLPNQTHPDVPVGDESQARVLHMVGDKPVFSFQPRGHLEIGEKLDIIRQKRLSHVSGHRSYYLRGAGALLQHGLVNFTFNKLLRRGFTPMTVPDLLRGAVFEGCGMTPNANPSQIYNIDPARFKDLNLAGTAEVGLAGYFMDHTVAFRDLPVRMVCSSTCYRAETNTGQEPRGLYRVHHFTKVEMFGVTGPGLEQSSQLLEEFLSLQMEILTELGLHFRVLDMPTQELGLPAYRKFDIEAWMPGRGRFGEVTSASNCTDFQSRRLHIMFQTEAGELQFAHTVNATACAVPRLLIALLESNQQKDGSVLVPPALQSYLGTDRITAPTHVPLQYIGPNQPRKPGLPGQPAVS [SARS2]”, the melting temperature with HeLa Kyoto [1] (cell cycle stage: G1/S) came to 51.5 °C; in the series on HeLa Kyoto [1] (cell cycle stage: mitosis) it was 51.4 °C. Also, the “solubility in G1/S (log2)” value in the series with HeLa Kyoto [2] was 0.265. The “solubility change mitosis (log2)” value in the series with HeLa Kyoto [3] was -0.148. Moreover, the thermal stability score in the series with HeLa Kyoto [4] (setting [5]) worked out at 2.24; in the series with HeLa Kyoto [4] (cell cycle stage: mitosis), 1.72.

Regarding “MAASQTSQTVASHVPFADLCSTLERIQKSKGRAEKIRHFREFLDSWRKFHDALHKNHKDVTDSFYPAMRLILPQLERERMAYGIKETMLAKLYIELLNLPRDGKDALKLLNYRTPTGTHGDAGDFAMIAYFVLKPRCLQKGSLTIQQVNDLLDSIASNNSAKRKDLIKKSLLQLITQSSALEQKWLIRMIIKDLKLGVSQQTIFSVFHNDAAELHNVTTDLEKVCRQLHDPSVGLSDISITLFSAFKPMLAAIADIEHIEKDMKHQSFYIETKLDGERMQMHKDGDVYKYFSRNGYNYTDQFGASPTEGSLTPFIHNAFKADIQICILDGEMMAYNPNTQTFMQKGTKFDIKRMVEDSDLQTCYCVFDVLMVNNKKLGHETLRKRYEILSSIFTPIPGRIEIVQKTQAHTKNEVIDALNEAIDKREEGIMVKQPLSIYKPDKRGEGWLKIKPEYVSGLMDELDILIVGGYWGKGSRGGMMSHFLCAVAEKPPPGEKPSVFHTLSRVGSGCTMKELYDLGLKLAKYWKPFHRKAPPSSILCGTEKPEVYIEPCNSVIVQIKAAEIVPSDMYKTGCTLRFPRIEKIRDDKEWHECMTLDDLEQLRGKASGKLASKHLYIGGDDEPQEKKRKAAPKMKKVIGIIEHLKAPNLTNVNKISNIFEDVEFCVMSGTDSQPKPDLENRIAEFGGYIVQNPGPDTYCVIAGSENIRVKNIILSNKHDVVKPAWLLECFKTKSFVPWQPRFMIHMCPSTKEHFAREYDCYGDSYFIDTDLNQLKEVFSGIKNSNEQTPEEMASLIADLEYRYSWDCSPLSMFRRHTVYLDSYAVINDLSTKNEGTRLAIKALELRFHGAKVVSCLAEGVSHVIIGEDHSRVADFKAFRRTFKRKFKILKESWVTDSIDKCELQEENQYLI [LIG4]”, the melting temperature in the series with HeLa Kyoto [1] (cell cycle stage: G1/S) was 48.4 °C; with HeLa Kyoto [1] (cell cycle stage: mitosis) it was 49.6 °C. Further, the “solubility in G1/S (log2)” value with HeLa Kyoto [2] was -0.0399. The “solubility change mitosis (log2)” value with HeLa Kyoto [3] was -0.329. For the same sequence, the thermal stability score with HeLa Kyoto [4] (setting [5]) is 0.0186; in the series on HeLa Kyoto [4] (cell cycle stage: mitosis) it was 0.758.

On to “MAASSLEQKLSRLEAKLKQENREARRRIDLNLDISPQRPRPTLQLPLANDGGSRSPSSESSPQHPTPPARPRHMLGLPSTLFTPRSMESIEIDQKLQEIMKQTGYLTIGGQRYQAEINDLENLGEMGSGTCGQVWKMRFRKTGHVIAVKQMRRSGNKEENKRILMDLDVVLKSHDCPYIVQCFGTFITNTDVFIAMELMGTCAEKLKKRMQGPIPERILGKMTVAIVKALYYLKEKHGVIHRDVKPSNILLDERGQIKLCDFGISGRLVDSKAKTRSAGCAAYMAPERIDPPDPTKPDYDIRADVWSLGISLVELATGQFPYKNCKTDFEVLTKVLQEEPPLLPGHMGFSGDFQSFVKDCLTKDHRKRPKYNKLLEHSFIKRYETLEVDVASWFKDVMAKTESPRTSGVLSQPHLPFFR [MAP2K7]”, for which the melting temperature in the series on HeLa Kyoto [1] (cell cycle stage: G1/S) was determined as 49.9 °C; in the series with HeLa Kyoto [1] (cell cycle stage: mitosis), 50 °C. Moreover, in the series with HeLa Kyoto [2], the “solubility in G1/S (log2)” value was found to be 0.237. Further, the “solubility change mitosis (log2)” value in the series with HeLa Kyoto [3] was found to be 0.0421. Moreover, the thermal stability score was determined as 1.35 in the series on HeLa Kyoto [4] (setting [5]) and 1.39 with HeLa Kyoto [4] (cell cycle stage: mitosis).

With “MAASVAAAARRLRRAIRRSPAWRGLSHRPLSSEPPAAKASAVRAAFLNFFRDRHGHRLVPSASVRPRGDPSLLFVNAGMNQFKPIFLGTVDPRSEMAGFRRVANSQKCVRAGGHHNDLEDVGRDLSHHTFFEMLGNWAFGGEYFKEEACNMAWELLTQVYGIPEERLWISYFDGDPKAGLDPDLETRDIWLSLGVPASRVLSFGPQENFWEMGDTGPCGPCTEIHYDLAGGVGAPQLVELWNLVFMQHNREADGSLQPLPQRHVDTGMGLERLVAVLQGKHSTYDTDLFSPLLNAIQQGCRAPPYLGRVGVADEGRTDTAYRVVADHIRTLSVCISDGIFPGMSGPPLVLRRILRRAVRFSMEILKAPPGFLGSLVPVVVETLGDAYPELQRNSAQIANLVSEDEAAFLASLERGRRIIDRTLRTLGPSDMFPAEVAWSLSLCGDLGLPLDMVELMLEEKGVQLDSAGLERLAQEEAQHRARQAEPVQKQGLWLDVHALGELQRQGVPPTDDSPKYNYSLRPSGSYEFGTCEAQVLQLYTEDGTAVASVGKGQRCGLLLDRTNFYAEQGGQASDRGYLVRAGQEDVLFPVARAQVCGGFILHEAVAPECLRLGDQVQLHVDEAWRLGCMAKHTATHLLNWALRQTLGPGTEQQGSHLNPEQLRLDVTTQTPLTPEQLRAVENTVQEAVGQDEAVYMEEVPLALTAQVPGLRSLDEVYPDPVRVVSVGVPVAHALDPASQAALQTSVELCCGTHLLRTGAVGDLVIIGDRQLSKGTTRLLAVTGEQAQQARELGQSLAQEVKAATERLSLGSRDVAEALRLSKDIGRLIEAVETAVMPQWQRRELLATVKMLQRRANTAIRKLQMGQAAKKTQELLERHSKGPLIVDTVSAESLSVLVKVVRQLCEQAPSTSVLLLSPQPMGKVLCACQVAQGAMPTFTAEAWALAVCSHMGGKAWGSRVVAQGTGSTTDLEAALSIAQTYALSQL [AARS2]”, the melting temperature in the series with HeLa Kyoto [1] (cell cycle stage: G1/S) came out at 49.9 °C; in the series on HeLa Kyoto [1] (cell cycle stage: mitosis) it was 50 °C. Also, the “solubility in G1/S (log2)” value in the series with HeLa Kyoto [2] is -0.0312. Further, in the series with HeLa Kyoto [3], the “solubility change mitosis (log2)” value is -0.0878. In addition, the figures for the thermal stability score in the series on HeLa Kyoto [4] (setting [5]) and with HeLa Kyoto [4] (cell cycle stage: mitosis) were -0.609 and 0.833, respectively.

With “MAASVVCRAATAGAQVLLRARRSPALLRTPALRSTATFAQALQFVPETQVSLLDNGLRVASEQSSQPTCTVGVWIDVGSRFETEKNNGAGYFLEHLAFKGTKNRPGSALEKEVESMGAHLNAYSTREHTAYYIKALSKDLPKAVELLGDIVQNCSLEDSQIEKERDVILREMQENDASMRDVVFNYLHATAFQGTPLAQAVEGPSENVRKLSRADLTEYLSTHYKAPRMVLAAAGGVEHQQLLDLAQKHLGGIPWTYAEDAVPTLTPCRFTGSEIRHRDDALPFAHVAIAVEGPGWASPDNVALQVANAIIGHYDCTYGGGVHLSSPLASGAVANKLCQSFQTFSICYAETGLLGAHFVCDRMKIDDMMFVLQGQWMRLCTSATESEVARGKNILRNALVSHLDGTTPVCEDIGRSLLTYGRRIPLAEWESRIAEVDASVVREICSKYIYDQCPAVAGYGPIEQLPDYNRIRSGMFWLRF [UQCRC1]”, the values for the melting temperature in the series with HeLa Kyoto [1] (cell cycle stage: G1/S) and in the series on HeLa Kyoto [1] (cell cycle stage: mitosis) were 55.3 °C and 54.2 °C, respectively. In addition, the “solubility in G1/S (log2)” value with HeLa Kyoto [2] turned out to be 0.324. Also, the “solubility change mitosis (log2)” value in the series with HeLa Kyoto [3] was -0.0237. The thermal stability score was -0.504 in the series with HeLa Kyoto [4] (setting [5]) and -3.84 with HeLa Kyoto [4] (cell cycle stage: mitosis).
